According to PMC9427776, “TTYH family members form tetrameric complexes at the cell membrane” (Communications Biology, 2022):

B1: mTTYH3-EGFP (HEK 293, pEGFP-N1) [mouse] / itself (parent)
chain: MAGVSYAAPWWVSLLHRLPHFDLRWEATSSQFRPEDADYQQALLLLGATALACLALDLLFLLFYSFWLCCRRRKTDEHLDADCCCTAWCVIITTLVCSAGIAVGFYGNGETSDGIHRATYSLRHANRTVAGVQDRVWDTAAALNRTAEPNLQSLERQLAGRQEPLRAVQRLQTLLGTLLGYTAAIPFWRNPGVSLEVLAEQVDLYDWYRWLGYLGLLLLDVIICLLVLVGLIRSSKGILVGVCLLGVLALVISWGALGLELAVSVGSSDFCVDPDTFVTKMVEEHSVLSGDILQYYLACSPRATNPFQQKLSGSHKALVEMQDVVAELLRNVPREHPATKDPLLRVQEVLNGTEVNLQHLTALVDCRSLHLDYVQALTGFCYDGVEGLIYLALFSFVTALMFSSIVCSIPHTWQQKRGPDDDGEEETAPGPRQAHDSLYRVHMPSLYSCGSSYGSEASIPAAAHTVSNAPVTEYMSQNANFQNPRCENTPLIGRESPPPSYTSSMRAKYLATSQPRPDSSGSGH

Variants of: B1
Assay: FSEC
Conditions: with itself; DDM solubilized HEK 293 cells; n = 3; parent: 0.98; read off a plot

Question: Which screen value does the source give for chain 1 C299A here?
Answer: 0.27

Question: Which screen value does the source give for chain 1 C366A here?
Answer: 0.25
